Assay results from article PMC3062594, “Intermolecular masking of the HIV-1 Rev NLS by the cellular protein HIC: Novel insights into the regulation of Rev nuclear import” (Retrovirology, 2011).

Target: T1, recombinant 6×His-HIC (Human I-mfa domain-Containing protein) (human, UniProt Q9P1T7-2 1-246)
T1 construct: also called 6xHis-HIC; 6ΧHis HIC; source: recombinant, purified; produced as described previously [25]; not shown: 6xHis, N-terminal, kept
T1 sequence (looked up): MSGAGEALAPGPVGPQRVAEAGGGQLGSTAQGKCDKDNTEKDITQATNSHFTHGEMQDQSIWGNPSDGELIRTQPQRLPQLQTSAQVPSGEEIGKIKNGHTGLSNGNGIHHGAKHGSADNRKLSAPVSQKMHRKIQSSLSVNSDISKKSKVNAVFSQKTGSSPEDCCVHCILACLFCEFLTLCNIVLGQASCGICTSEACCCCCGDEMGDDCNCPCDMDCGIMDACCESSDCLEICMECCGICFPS
Assay: pull-down
Details: both partners purified

B1: GST-YFP-RevNLS (aa35-46) (domain or fragment)
chain: RQARRNRRRRWR
notes: source: recombinant GST fusion protein, purified; produced as described previously; not shown: GST, N-terminal, kept; YFP, N-terminal, kept
binding result: binds
